Molecular target: human NPRA on HEK cells, without ligand (human) (UniProt P16066)
Assay: cell-based or functional assay

Chain of human NPRA on HEK cells, without ligand (human) (P16066 33-1061 limits assumed): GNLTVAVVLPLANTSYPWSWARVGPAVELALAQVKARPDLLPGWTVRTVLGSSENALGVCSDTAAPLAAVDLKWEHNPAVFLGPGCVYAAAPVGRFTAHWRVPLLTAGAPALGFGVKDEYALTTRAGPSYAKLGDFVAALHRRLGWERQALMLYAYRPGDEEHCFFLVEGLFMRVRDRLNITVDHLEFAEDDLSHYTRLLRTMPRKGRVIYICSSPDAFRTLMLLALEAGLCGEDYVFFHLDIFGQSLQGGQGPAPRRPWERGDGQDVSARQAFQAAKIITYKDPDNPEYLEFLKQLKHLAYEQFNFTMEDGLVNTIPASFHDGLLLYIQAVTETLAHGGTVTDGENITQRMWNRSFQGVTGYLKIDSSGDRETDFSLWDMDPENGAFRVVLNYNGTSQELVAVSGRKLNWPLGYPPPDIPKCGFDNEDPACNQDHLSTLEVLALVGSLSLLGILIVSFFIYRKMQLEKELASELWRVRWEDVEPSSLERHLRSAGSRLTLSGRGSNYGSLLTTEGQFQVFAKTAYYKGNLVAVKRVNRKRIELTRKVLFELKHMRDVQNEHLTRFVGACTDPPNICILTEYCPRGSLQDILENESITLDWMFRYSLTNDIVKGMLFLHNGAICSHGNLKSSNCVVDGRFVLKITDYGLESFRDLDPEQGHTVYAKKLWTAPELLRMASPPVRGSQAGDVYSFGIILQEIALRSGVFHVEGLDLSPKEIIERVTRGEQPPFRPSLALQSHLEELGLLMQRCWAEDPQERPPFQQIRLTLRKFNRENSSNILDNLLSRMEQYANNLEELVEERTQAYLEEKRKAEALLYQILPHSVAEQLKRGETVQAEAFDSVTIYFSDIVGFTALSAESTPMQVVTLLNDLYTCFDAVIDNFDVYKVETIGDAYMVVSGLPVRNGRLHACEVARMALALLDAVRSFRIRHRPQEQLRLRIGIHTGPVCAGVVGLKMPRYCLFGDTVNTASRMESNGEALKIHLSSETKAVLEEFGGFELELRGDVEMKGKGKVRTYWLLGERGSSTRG
Chain of BNP (B-type natriuretic peptide) (P16860 103-134): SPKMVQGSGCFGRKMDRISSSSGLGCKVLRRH

EC50 of BNP for cGMP production in HEK NPRA cells in presence of 400 nM Fab 5504: 0.018 µM | EC50 of BNP for cGMP production in HEK NPRA cells in presence of 400 nM negative control Fab: 0.09 µM
Substance: BNP (B-type natriuretic peptide) (from UniProt P16860 103-134)
